The conditions of this data set: pH 7, Thermal, CD, Sodium phosphate 5 mM, NaCl 0.2 M, reversible: yes, whole UniProt chain shown.

B1: DNA-binding protein HU wild type, P0A3H0 (protein)
chain: MNKTELINAVAETSGLSKKDATKAVDAVFDSITEALRKGDKVQLIGFGNFEVRERAARKGRNPQTGEEMEIPASKVPAFKPGKALKDAVK
For orientation: Tm means the temperature at which the thermal transition is half complete. With B1, under “Geobacillus stearothermophilus”, the Tm amounted to 63.9 °C and the “unfolding enthalpy (van 't Hoff)” value is 72.8 kcal/mol.

B2: DNA-binding protein HU 1 wild type, P08821 (protein)
chain: MNKTELINAVAEASELSKKDATKAVDSVFDTILDALKNGDKIQLIGFGNFEVRERSARKGRNPQTGEEIEIPASKVPAFKPGKALKDAVAGK
In the case of B2, the Tm (Bacillus subtilis (strain 168)) was 48.6 °C.

The values are drawn from FireProtDB (doi:10.1074/jbc.273.32.19982).
